Test results reported in the supplement of paper PMC12764529.
± gives the half width of the 95% confidence interval.

What was measured:
[1] = folding stability dG unfold from trypsin proteolysis; higher = more stable
In short: (§1)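 Unfolding free energy was derived, per protease or combined, against a sequence-predicted unfolded-state K50 and a shared folded-state K50, starting from K50 inferred by Bayesian fitting of sequencing counts. Digestion with trypsin and chymotrypsin was carried out on designed mini-proteins under 80 residues without cysteine in a PA-tagged cDNA display construct. Only designs with AlphaFold2 dimer inter-PAE above 15 were kept.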

[2] = folding stability dG unfold from chymotrypsin proteolysis; higher = more stable
In short: as §1

[3] = folding stability dG unfold (combined trypsin and chymotrypsin); higher = more stable
In short: as §1

Sequence | folding stability dG unfold [1] | folding stability dG unfold [2] | folding stability dG unfold [3]
SAGMTTTLTKTEKFPDGTTVTYTTVTAPDGTPLTATATYDPNNPNKATTTTTDPATGTTTTTTTTITGGSAG [r5_345_JUSTAS] | 1.03 ± 0.065 kcal/mol | 0.674 ± 0.11 kcal/mol | 0.852 ± 0.12 kcal/mol
SAGASVSRPVSADEEFSVTVPPEPVTLEVTVYRPDGSVLSSRTIPVGPNTTVTLNVPDPDWSVSFSPVASAG [r5_797_JUSTAS] | -0.0205 ± 0.2 kcal/mol | 0.082 ± 0.18 kcal/mol | 0.232 ± 0.2 kcal/mol
SAGGSAGGSAGGGSVSGSTPLTLPDSPVTRYSYPDSLVTFVPEKGVVITVSGSSTTVALSAGGSAGGSAGGS [r10_559_JUSTAS] | 0.825 ± 0.03 kcal/mol | 0.44 ± 0.077 kcal/mol | 0.654 ± 0.11 kcal/mol
SAGFKIVDVEPTDGRLEITIPIDKPGDALMFMVPFPNAKITPDPNGKITITIPPGGWYMIMIRLKKDASAGG [r19_227_TrROS] | 2.33 ± 0.037 kcal/mol | 2.67 ± 0.091 kcal/mol | 2.6 ± 0.14 kcal/mol
SAGGSAGGSMEIPANIPIEEFAALIKKKGNFEVKKVGPKTFVIVSKDNKKPLVVKFDAKPGLDSAGGSAGGS [r20_236_TrMRF] | -0.035 ± 0.064 kcal/mol | 0.261 ± 0.15 kcal/mol | 0.183 ± 0.076 kcal/mol
SAGGSAGGSAGGMEVVIPLDKNERYLAYVLGEPKFVEFDPEKGYLVIPNTPPENVIVVKYSAGGSAGGSAGG [r7_200_TrMRF] | 0.248 ± 0.05 kcal/mol | 0.418 ± 0.15 kcal/mol | 0.325 ± 0.1 kcal/mol
SAGGSAGGSAAMLNRKPTVYPLPDDTVRLEETVPSPGTKIYKTIKLPPGGLIEEGDVSYPPSAGGSAGGSAG [r3_165_JUSTAS] | -1.08 ± 0.31 kcal/mol | -0.367 ± 0.23 kcal/mol | -0.521 ± 0.19 kcal/mol
SDPNGKPKKRRFYVMITVPHKMKPERDPDGKMEMEHKMPTVMFPFPADDLDDLRDILEPFGISVSLMPLDSA [r9_1209_TrROS] | 1.6 ± 0.057 kcal/mol | 2.14 ± 0.066 kcal/mol | 1.94 ± 0.093 kcal/mol
SAGGSAAPLVLPVRIYGPNENVTAEASEYDPGTGIVRLTVTHPDGTKTTLTFTGPAALLPPDADLNSAGGSA [r15_596_TrMRF] | 0.611 ± 0.023 kcal/mol | 0.849 ± 0.066 kcal/mol | 0.764 ± 0.056 kcal/mol
SAGGSAGGMIKIKLKNGEVLYIDPKKPVLYFNKEKKIIPVKKDKIEKALKELEKKGFKIEKIDPSAGGSAGG [r6_337_TrMRF] | -0.249 ± 0.28 kcal/mol | -0.0347 ± 0.31 kcal/mol | 0.0657 ± 0.15 kcal/mol
SAMTLTVRVKATPEQLKEALEEETGAKVTIEEEEDGVLTITVEVSEEEREKLAEALKKLPGLEIEIEEESAG [r14_521_TrROS_Hall] | 1.94 ± 0.067 kcal/mol | 1.89 ± 0.026 kcal/mol | 1.9 ± 0.091 kcal/mol
SAGGGAIVRARFPRDIPELVRAYKILEAAAPDEEVTLLLPEKPVVVVRREKVGDYFLLEVRLPEDLLSAGGS [r16_404_TrMRF] | 0.647 ± 0.2 kcal/mol | 0.546 ± 0.15 kcal/mol | 0.609 ± 0.12 kcal/mol
SAGGVRKIEFRIDLPDPNVTIEEIVERILKELGLKPEEAIVEVLKIEEVEDEDGIPHIRIDVKIYVPDKSAG [r5_528_TrMRF] | 3.54 ± 0.1 kcal/mol | 2.98 ± 0.031 kcal/mol | 3.21 ± 0.059 kcal/mol
SAGGSAGGSAGSFLIVVRFPNSTVLFDAPEDTDVDALKKAIKKLFNADIEVEVVPKEKPLSAGGSAGGSAGG [r11_805_TrMRF] | 1.75 ± 0.058 kcal/mol | 1.55 ± 0.051 kcal/mol | 1.79 ± 0.093 kcal/mol
SAGGSAGGSAGVEEIAKILQELGFEVEVEPVPDGMRTIEVQNKNGKKITIRITADGKIEISAGGSAGGSAGG [r17_503_TrROS] | 1.9 ± 0.03 kcal/mol | 2.2 ± 0.14 kcal/mol | 2.09 ± 0.11 kcal/mol
SAGGSAGGSAGGPNLQIMVMQTDNSLTVMIYLPEGWVIVYKITPMKIELEIMPLKDPDDSAGGSAGGSAGGS [r10_1169_TrROS] | 3.98 ± 0.32 kcal/mol | 5.17 ± 0.32 kcal/mol | 4.89 ± 0.28 kcal/mol
SAGGSAGGSAGGETVTIVDKKTNKTITYNKETNEFTITTKNGKKKTIKVDSPEEALKALSAGGSAGGSAGGS [r10_849_TrROS_Hall] | 0.964 ± 0.02 kcal/mol | 0.731 ± 0.1 kcal/mol | 0.89 ± 0.12 kcal/mol
SAGGSAGEAYSVVKASWNPETGTLNIVVKNPSTGEQKVYNIKPGNPVIDFPEGSVIESIEINPSPYSAGGSA [r15_959_TrMRF] | 0.237 ± 0.095 kcal/mol | 1.03 ± 0.2 kcal/mol | 0.835 ± 0.11 kcal/mol
SAGGSAGGSAMKIPPGETVEEVELSFLPNGEIILKKTTITKKGNTTTVETEVKIVKPDVPLSAGGSAGGSAG [r3_49_JUSTAS] | 0.877 ± 0.027 kcal/mol | 0.701 ± 0.067 kcal/mol | 0.836 ± 0.1 kcal/mol
SAGGSPPDNFKMEPIPLRFPNGWKITVMVMRNPDDGRPYVSVEIEPPNDGKEVKFMMPADDLKDFISAGGSA [r2_366_TrROS] | 1.5 ± 0.054 kcal/mol | 1.64 ± 0.23 kcal/mol | 1.66 ± 0.19 kcal/mol
SAGGSAGGSAGTRTITIFIPVPPGKMTPEDALDFIKPFFPDVKIEVEPVNNYYAIEITVKSAGGSAGGSAGG [r11_7_TrROS] | 1.17 ± 0.056 kcal/mol | 0.825 ± 0.045 kcal/mol | 1.04 ± 0.15 kcal/mol
